Results: paper PMC10397247
Where two headings read alike, the source gives them in different places. Blank lines part the entries; values can stand above or below the binder they belong to.

Experiments:
O9-bS = target: T1, O9-bS; assay: two-hybrid library CCNG1; conditions: mean of both orientations;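 note: natural log of median RNA to DNA barcode read ratio; higher means stronger binding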
T1 chain: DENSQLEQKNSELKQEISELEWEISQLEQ

4H906-bN = target: T2, 4H906-bN; assay: two-hybrid library CCNG1;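 note: natural log of median RNA to DNA barcode read ratio; higher means stronger binding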
T2 chain: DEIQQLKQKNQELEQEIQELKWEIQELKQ

4H626-bN = target: T3, 4H626-bN; assay: two-hybrid library CCNG1;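 note: natural log of median RNA to DNA barcode read ratio; higher means stronger binding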
T3 chain: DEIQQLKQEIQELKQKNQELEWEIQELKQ

4H3974-bN = target: T4, 4H3974-bN; assay: two-hybrid library CCNG1;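 note: natural log of median RNA to DNA barcode read ratio; higher means stronger binding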
T4 chain: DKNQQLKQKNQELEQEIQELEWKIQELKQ

4H3628-bN = target: T5, 4H3628-bN; assay: two-hybrid library CCNG1;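 note: natural log of median RNA to DNA barcode read ratio; higher means stronger binding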
T5 chain: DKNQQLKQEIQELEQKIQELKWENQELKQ

4H570-bN = target: T6, 4H570-bN; assay: two-hybrid library CCNG1;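 note: natural log of median RNA to DNA barcode read ratio; higher means stronger binding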
T6 chain: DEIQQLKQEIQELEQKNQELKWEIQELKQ

4H3858-bN = target: T7, 4H3858-bN; assay: two-hybrid library CCNG1
T7 chain: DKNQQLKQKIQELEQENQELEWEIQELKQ

4H3613-bN = target: T8, 4H3613-bN; assay: two-hybrid library CCNG1
T8 chain: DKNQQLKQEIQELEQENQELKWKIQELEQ

4H591-bN = target: T9, 4H591-bN; assay: two-hybrid library CCNG1
T9 chain: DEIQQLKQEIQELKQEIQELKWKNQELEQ

4H850-bN = target: T10, 4H850-bN; assay: two-hybrid library CCNG1
T10 chain: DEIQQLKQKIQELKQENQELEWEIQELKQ

4H3817-bN = target: T11, 4H3817-bN; assay: two-hybrid library CCNG1
T11 chain: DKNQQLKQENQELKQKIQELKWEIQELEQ

4H3926-bN = target: T12, 4H3926-bN; assay: two-hybrid library CCNG1
T12 chain: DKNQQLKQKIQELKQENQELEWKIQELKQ

P9-AA = target: T13, P9-AA; assay: two-hybrid library CCmax; conditions: mean of both orientations
T13 chain: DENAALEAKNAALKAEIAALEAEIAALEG

P7-AA = target: T14, P7-AA; assay: two-hybrid library CCmax
T14 chain: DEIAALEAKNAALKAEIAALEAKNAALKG

zCON9_B = target: T15, zCON9_B; assay: two-hybrid library CCmax; conditions: mean of both orientations
T15 chain: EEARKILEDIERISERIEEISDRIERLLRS

zCON9_A = target: T16, zCON9_A; assay: two-hybrid library CCmax
T16 chain: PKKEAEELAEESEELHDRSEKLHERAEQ

P8-AA = target: T17, P8-AA; assay: two-hybrid library CCmax; conditions: mean of both orientations
T17 chain: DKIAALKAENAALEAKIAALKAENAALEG

zCON9_D = target: T18, zCON9_D; assay: two-hybrid library CCmax
T18 chain: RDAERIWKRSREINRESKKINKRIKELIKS

4H656-AA = target: T19, 4H656-AA; assay: two-hybrid library CCmax; conditions: mean of both orientations
T19 chain: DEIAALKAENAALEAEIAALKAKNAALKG

4H391-AA = target: T20, 4H391-AA; assay: two-hybrid library CCmax; conditions: mean of both orientations
T20 chain: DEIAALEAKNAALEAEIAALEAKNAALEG

4H2713-AA = target: T21, 4H2713-AA; assay: two-hybrid library CCmax
T21 chain: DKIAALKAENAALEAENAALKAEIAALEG

4H3591-AA = target: T22, 4H3591-AA; assay: two-hybrid library CCmax; conditions: mean of both orientations
T22 chain: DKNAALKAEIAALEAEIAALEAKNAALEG

4H3066-AA = target: T23, 4H3066-AA; assay: two-hybrid library CCmax; conditions: mean of both orientations
T23 chain: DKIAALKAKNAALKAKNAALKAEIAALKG

4H971-AA = target: T24, 4H971-AA; assay: two-hybrid library CCmax; conditions: mean of both orientations
T24 chain: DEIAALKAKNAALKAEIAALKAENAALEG

4H2948-AA = target: T25, 4H2948-AA; assay: two-hybrid library CCmax; conditions: mean of both orientations
T25 chain: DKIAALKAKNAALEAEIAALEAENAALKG

4H2742-AA = target: T26, 4H2742-AA; assay: two-hybrid library CCmax; conditions: mean of both orientations
T26 chain: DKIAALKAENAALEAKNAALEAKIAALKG

4H3121-AA = target: T27, 4H3121-AA; assay: two-hybrid library CCmax; conditions: mean of both orientations
T27 chain: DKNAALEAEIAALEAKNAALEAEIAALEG

4H3709-AA = target: T28, 4H3709-AA; assay: two-hybrid library CCmax; conditions: mean of both orientations
T28 chain: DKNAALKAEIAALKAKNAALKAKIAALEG

4H3628-AA = target: T29, 4H3628-AA; assay: two-hybrid library CCmax; conditions: mean of both orientations
T29 chain: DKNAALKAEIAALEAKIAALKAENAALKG

4H2991-AA = target: T30, 4H2991-AA; assay: two-hybrid library CCmax; conditions: mean of both orientations
T30 chain: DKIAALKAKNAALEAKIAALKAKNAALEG

4H3939-AA = target: T31, 4H3939-AA; assay: two-hybrid library CCmax; conditions: mean of both orientations
T31 chain: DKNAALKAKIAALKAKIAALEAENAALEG

4H478-AA = target: T32, 4H478-AA; assay: two-hybrid library CCmax; conditions: mean of both orientations
T32 chain: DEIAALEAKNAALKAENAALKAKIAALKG

4H3446-AA = target: T33, 4H3446-AA; assay: two-hybrid library CCmax; conditions: mean of both orientations
T33 chain: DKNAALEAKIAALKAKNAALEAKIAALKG

4H3417-AA = target: T34, 4H3417-AA; assay: two-hybrid library CCmax; conditions: mean of both orientations
T34 chain: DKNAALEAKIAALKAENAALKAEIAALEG

4H3920-AA = target: T35, 4H3920-AA; assay: two-hybrid library CCmax; conditions: mean of both orientations
T35 chain: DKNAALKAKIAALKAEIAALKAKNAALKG

4H3666-AA = target: T36, 4H3666-AA; assay: two-hybrid library CCmax; conditions: mean of both orientations
T36 chain: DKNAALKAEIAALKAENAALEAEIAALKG

4H675-AA = target: T37, 4H675-AA; assay: two-hybrid library CCmax; conditions: mean of both orientations
T37 chain: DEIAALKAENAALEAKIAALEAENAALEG

4H3029-AA = target: T38, 4H3029-AA; assay: two-hybrid library CCmax; conditions: mean of both orientations
T38 chain: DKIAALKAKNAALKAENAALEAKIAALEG

4H497-AA = target: T39, 4H497-AA; assay: two-hybrid library CCmax; conditions: mean of both orientations
T39 chain: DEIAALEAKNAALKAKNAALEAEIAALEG

4H3102-AA = target: T40, 4H3102-AA; assay: two-hybrid library CCmax; conditions: mean of both orientations
T40 chain: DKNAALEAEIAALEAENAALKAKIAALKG

4H428-AA = target: T41, 4H428-AA; assay: two-hybrid library CCmax; conditions: mean of both orientations
T41 chain: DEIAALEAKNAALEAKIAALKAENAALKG

P3-AA = target: T42, P3-AA; assay: two-hybrid library CCmax; conditions: mean of both orientations
T42 chain: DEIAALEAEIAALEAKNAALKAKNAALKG

P4-AA = target: T43, P4-AA; assay: two-hybrid library CCmax; conditions: mean of both orientations
T43 chain: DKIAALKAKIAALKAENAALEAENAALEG

P10-AA = target: T44, P10-AA; assay: two-hybrid library CCmax; conditions: mean of both orientations
T44 chain: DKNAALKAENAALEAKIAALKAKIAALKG

P11-AA = target: T45, P11-AA; assay: two-hybrid library CCmax; conditions: mean of both orientations
T45 chain: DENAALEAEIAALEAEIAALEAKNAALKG

GCN2_T = assay: two-hybrid library CCmax
P2-AA = target: T46, P2-AA; assay: two-hybrid library CCmax; conditions: mean of both orientations
T46 chain: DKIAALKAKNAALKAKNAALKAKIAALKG

AP8-AA = target: T47, AP8-AA; assay: two-hybrid library CCmax; conditions: mean of both orientations
T47 chain: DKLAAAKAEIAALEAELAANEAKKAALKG

AP7-AA = target: T48, AP7-AA; assay: two-hybrid library CCmax
T48 chain: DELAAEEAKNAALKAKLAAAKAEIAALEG

P12-AA = target: T49, P12-AA; assay: two-hybrid library CCmax; conditions: mean of both orientations
T49 chain: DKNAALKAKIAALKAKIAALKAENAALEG

P1-AA = target: T50, P1-AA; assay: two-hybrid library CCmax; conditions: mean of both orientations
T50 chain: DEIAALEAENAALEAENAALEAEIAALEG

4H687-bN = target: T51, 4H687-bN; assay: two-hybrid library CCNG1
T51 chain: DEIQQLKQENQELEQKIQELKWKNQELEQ

O9-bP = target: T52, O9-bP; assay: two-hybrid library CCNG1
T52 chain: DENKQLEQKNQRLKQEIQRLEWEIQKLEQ

interaction score (O9-bS): -1.16
Binder: DENSQLEQKNSELKQEISELEWEISQLEQ [O9-bS]

interaction score (4H906-bN): -1.78 | interaction score (4H626-bN): -1.98 | interaction score (4H3974-bN): -1.53 | interaction score (4H3628-bN): -1.69 | interaction score (4H570-bN): -0.737 | interaction score (4H3858-bN): -0.655 | interaction score (4H3613-bN): -0.839 | interaction score (4H591-bN): -0.893 | interaction score (4H850-bN): -0.0632 | interaction score (4H3817-bN): -0.783 | interaction score (4H3926-bN): 0.45
Binder: DKNQQLKQEIQELEQENQELKWKIQELEQ [4H3613-bN]

interaction score (P9-AA): -1.14 | interaction score (P7-AA): -1.79 | interaction score (zCON9_B): -1.46 | interaction score (zCON9_A): -1.78 | interaction score (P8-AA): 1.87 | interaction score (zCON9_D): -1.95
Binder: DEIAALEAKNAALKAEIAALEAKNAALKG [P7-AA]

interaction score (4H656-AA): -1.66 | interaction score (4H391-AA): -1.91 | interaction score (4H2713-AA): 0.691 | interaction score (4H3591-AA): -1.25 | interaction score (4H3066-AA): 1.76 | interaction score (4H971-AA): -1.57 | interaction score (4H2948-AA): -1.84 | interaction score (4H2742-AA): -0.508 | interaction score (4H3121-AA): -1.64 | interaction score (4H3709-AA): -1.95 | interaction score (4H3628-AA): -1.22 | interaction score (4H2991-AA): -1.79 | interaction score (4H3939-AA): -1.59 | interaction score (4H478-AA): 2.27 | interaction score (4H3446-AA): -1.15 | interaction score (4H3417-AA): -1.19 | interaction score (4H3920-AA): -1.61 | interaction score (4H3666-AA): -1.39 | interaction score (4H675-AA): -1.83 | interaction score (4H3029-AA): 1.75 | interaction score (4H497-AA): 0.0354 | interaction score (4H3102-AA): -0.638 | interaction score (4H428-AA): -1.87
Binder: DKIAALKAENAALEAENAALKAEIAALEG [4H2713-AA]

interaction score (P9-AA): -2.24 | interaction score (P3-AA): -1.88 | interaction score (P4-AA): -1.42 | interaction score (P7-AA; mean of both orientations): -2.09 | interaction score (P10-AA): -0.0128 | interaction score (P11-AA): -0.965 | interaction score (GCN2_T): -2.13 | interaction score (P2-AA): -1.94 | interaction score (AP8-AA): -2.81 | interaction score (AP7-AA): -1.7 | interaction score (P8-AA): -0.66 | interaction score (P12-AA): -1.62 | interaction score (P1-AA): -1.52
Binder: DELAAEEAKNAALKAKLAAAKAEIAALEG [AP7-AA]

interaction score (4H906-bN): 0.069 | interaction score (4H626-bN): -2.08 | interaction score (4H3974-bN): -0.134 | interaction score (4H3628-bN): -0.36 | interaction score (4H687-bN): -0.529 | interaction score (4H570-bN): -1.33 | interaction score (O9-bP): -0.345 | interaction score (4H3858-bN): -2.07 | interaction score (4H591-bN): -0.603 | interaction score (4H850-bN): -1.18 | interaction score (4H3817-bN): -1.03 | interaction score (4H3926-bN): -0.307
Binder: DKNQQLKQEIQELEQKIQELKWENQELKQ [4H3628-bN]
